Assay results: patent US20120226024A1
Where two headings read alike, the source gives them in different places.

Assays:
[1] = target: Fucα1,6GlcNAc-CD52 (17) (human) (UniProt P31358)
[2] = target: Fucα1,6GlcNAc-CD52 (17) (human) (UniProt P31358); remark: listed apart in the source

Substance	transglycosylation with sialoglycan oxazoline (12), yield of 18 [2]	also measured
Endo-F3 (Endoglycosidase-F3), wild type (enzyme)		transglycosylation with sialoglycan oxazoline (12), isolated yield of 18 [1]: 55%
Endo-F3 D126Q mutant (enzyme)	> 90%	
Endo-F3 D126A mutant (enzyme)	> 90%	
Endo-F2 (Endoglycosidase-F2), wild type (enzyme)		transglycosylation with sialoglycan oxazoline (12), yield of 18 [1]: 25%
